Measurements as given in article PMC9482650, “Quantitative fragmentomics allow affinity mapping of interactomes” (Nature Communications, 2022).

Experiments:
Assay in all cases: holdup assay
Set-up in all cases: key: below the threshold = too weak to quantify, mostly under pKd 3.1 to 4
APBA1_1, Q02410 = biological target: T1, APBA1_1, Q02410
T1 sequence (Q02410 651-752, limits assumed, looked up): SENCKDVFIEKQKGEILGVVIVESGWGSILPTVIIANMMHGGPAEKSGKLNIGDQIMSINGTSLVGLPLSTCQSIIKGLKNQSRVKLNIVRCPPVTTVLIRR

APBA2_2, Q99767 = biological target: T2, APBA2_2, Q99767
T2 sequence (Q99767 654-744, limits assumed, looked up): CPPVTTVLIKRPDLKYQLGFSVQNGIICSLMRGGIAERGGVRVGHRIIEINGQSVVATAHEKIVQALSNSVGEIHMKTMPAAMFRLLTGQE

DFNB31_2, Q9P202 = biological target: T3, DFNB31_2, Q9P202
T3 sequence (Q9P202 274-371, limits assumed, looked up): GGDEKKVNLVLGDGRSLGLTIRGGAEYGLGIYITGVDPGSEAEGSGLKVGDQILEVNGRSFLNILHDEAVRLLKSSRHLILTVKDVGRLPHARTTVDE

DFNB31_3, Q9P202 = biological target: T4, DFNB31_3, Q9P202
T4 sequence (Q9P202 811-907, limits assumed, looked up): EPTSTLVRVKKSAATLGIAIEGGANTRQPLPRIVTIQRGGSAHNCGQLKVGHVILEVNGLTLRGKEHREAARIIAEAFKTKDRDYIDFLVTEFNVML

DLG2_2, Q15700 = biological target: DLG2_2, Q15700
Sequence of DLG2_2, Q15700 (Q15700 189-283): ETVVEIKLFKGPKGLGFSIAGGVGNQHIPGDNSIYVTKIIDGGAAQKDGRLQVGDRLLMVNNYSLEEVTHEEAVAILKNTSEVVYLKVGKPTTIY

DLG3_1, Q92796 = biological target: T5, DLG3_1, Q92796
T5 sequence (Q92796 125-227, limits assumed, looked up): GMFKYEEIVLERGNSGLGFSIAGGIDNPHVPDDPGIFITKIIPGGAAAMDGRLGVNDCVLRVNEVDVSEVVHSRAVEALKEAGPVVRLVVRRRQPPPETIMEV

FRMPD1, Q5SYB0 = biological target: T6, FRMPD1, Q5SYB0
T6 sequence (Q5SYB0 52-145, limits assumed, looked up): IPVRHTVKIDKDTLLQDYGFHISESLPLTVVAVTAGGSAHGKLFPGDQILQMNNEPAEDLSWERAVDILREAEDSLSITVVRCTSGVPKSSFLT

FRMPD4, Q14CM0 = biological target: FRMPD4, Q14CM0
Sequence of FRMPD4, Q14CM0 (Q14CM0 67-160): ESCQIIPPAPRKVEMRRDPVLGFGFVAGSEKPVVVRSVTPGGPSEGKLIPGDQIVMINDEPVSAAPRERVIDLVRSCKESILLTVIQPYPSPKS

GORASP2, Q9H8Y8 = biological target: GORASP2, Q9H8Y8
GRASP, Q7Z6J2 = biological target: GRASP, Q7Z6J2
Sequence of GRASP, Q7Z6J2 (Q7Z6J2 96-193): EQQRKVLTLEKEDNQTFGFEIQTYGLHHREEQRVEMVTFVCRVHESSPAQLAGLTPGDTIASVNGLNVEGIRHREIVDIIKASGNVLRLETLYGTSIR

GRIP1_2, Q9Y3R0 = biological target: T7, GRIP1_2, Q9Y3R0
T7 sequence (Q9Y3R0 145-248, limits assumed, looked up): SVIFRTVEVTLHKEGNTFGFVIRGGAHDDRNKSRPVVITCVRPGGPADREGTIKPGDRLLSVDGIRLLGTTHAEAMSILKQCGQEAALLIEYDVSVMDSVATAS

GRIP2_7, Q9C0E4 = biological target: GRIP2_7, Q9C0E4
Sequence of GRIP2_7, Q9C0E4 (Q9C0E4 934-1023): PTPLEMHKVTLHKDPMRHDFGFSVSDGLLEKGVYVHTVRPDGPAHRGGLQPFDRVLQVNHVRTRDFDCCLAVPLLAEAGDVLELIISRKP

HTRA1, Q92743 = biological target: HTRA1, Q92743
Sequence of HTRA1, Q92743 (Q92743 360-477): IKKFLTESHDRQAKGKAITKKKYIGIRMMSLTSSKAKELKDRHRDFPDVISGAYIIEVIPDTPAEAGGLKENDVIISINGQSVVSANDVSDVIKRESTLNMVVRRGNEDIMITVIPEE

HTRA4, P83105 = biological target: T8, HTRA4, P83105
T8 sequence (P83105 378-476, limits assumed, looked up): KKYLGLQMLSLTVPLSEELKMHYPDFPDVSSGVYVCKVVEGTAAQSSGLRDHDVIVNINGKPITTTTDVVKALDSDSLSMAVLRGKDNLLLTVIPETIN

IL16_3, Q14005 = biological target: IL16_3, Q14005
Sequence of IL16_3, Q14005 (Q14005 1107-1207): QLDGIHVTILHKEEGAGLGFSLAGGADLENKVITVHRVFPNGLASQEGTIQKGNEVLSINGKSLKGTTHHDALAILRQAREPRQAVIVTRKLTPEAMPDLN

LIN7A, O14910 = biological target: T9, LIN7A, O14910
T9 sequence (O14910 103-200, limits assumed, looked up): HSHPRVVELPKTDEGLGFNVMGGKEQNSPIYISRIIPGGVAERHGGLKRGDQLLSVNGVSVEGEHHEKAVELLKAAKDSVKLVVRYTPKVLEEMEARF

LNX1_2, Q8TBB1 = biological target: LNX1_2, Q8TBB1
Sequence of LNX1_2, Q8TBB1 (Q8TBB1 371-470): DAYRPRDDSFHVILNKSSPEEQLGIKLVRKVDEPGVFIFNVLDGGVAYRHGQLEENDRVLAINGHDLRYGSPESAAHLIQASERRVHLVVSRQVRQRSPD

MAGI1_1, Q96QZ7 = biological target: MAGI1_1, Q96QZ7
Sequence of MAGI1_1, Q96QZ7 (Q96QZ7 1-106): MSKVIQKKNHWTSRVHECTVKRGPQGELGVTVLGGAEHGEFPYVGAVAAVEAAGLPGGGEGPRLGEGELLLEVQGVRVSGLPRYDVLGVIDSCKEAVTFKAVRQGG

MAGI2_4, Q86UL8 = biological target: MAGI2_4, Q86UL8
Sequence of MAGI2_4, Q86UL8 (Q86UL8 772-865): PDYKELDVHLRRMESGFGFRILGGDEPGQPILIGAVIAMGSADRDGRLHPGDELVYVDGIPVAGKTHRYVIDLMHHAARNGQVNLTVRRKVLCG

MAGI2_6, Q86UL8 = biological target: MAGI2_6, Q86UL8
Sequence of MAGI2_6, Q86UL8 (Q86UL8 1141-1229): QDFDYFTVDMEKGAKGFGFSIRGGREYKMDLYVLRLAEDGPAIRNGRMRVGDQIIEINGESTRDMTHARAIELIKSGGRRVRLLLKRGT

MAST2, Q6P0Q8 = biological target: MAST2, Q6P0Q8
Sequence of MAST2, Q6P0Q8 (Q6P0Q8 1099-1202): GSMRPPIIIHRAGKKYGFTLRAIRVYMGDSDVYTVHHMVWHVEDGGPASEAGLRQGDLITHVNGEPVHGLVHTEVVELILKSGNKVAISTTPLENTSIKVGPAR

MPP2, Q14168 = biological target: T10, MPP2, Q14168
T10 sequence (Q14168 180-250, limits assumed, looked up): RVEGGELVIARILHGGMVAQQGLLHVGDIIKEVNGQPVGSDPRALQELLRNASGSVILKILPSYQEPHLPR

PARD3B_1, Q8TEW8 = biological target: T11, PARD3B_1, Q8TEW8
T11 sequence (Q8TEW8 196-299, limits assumed, looked up): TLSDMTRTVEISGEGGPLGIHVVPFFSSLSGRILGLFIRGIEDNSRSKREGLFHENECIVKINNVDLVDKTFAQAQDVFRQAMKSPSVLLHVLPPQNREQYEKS

SCRIB_1, Q14160 = biological target: SCRIB_1, Q14160
Sequence of SCRIB_1, Q14160 (Q14160 718-814): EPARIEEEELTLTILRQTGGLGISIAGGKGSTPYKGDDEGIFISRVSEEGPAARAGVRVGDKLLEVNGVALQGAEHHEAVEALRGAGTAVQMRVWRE

SNTA1, Q13424 = biological target: T12, SNTA1, Q13424
T12 sequence (Q13424 82-180, limits assumed, looked up): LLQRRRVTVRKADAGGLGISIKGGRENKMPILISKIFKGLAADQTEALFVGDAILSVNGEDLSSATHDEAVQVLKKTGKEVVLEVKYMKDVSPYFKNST

[1] = plain residues with an end cap or a label only (N-terminal biotin on a linker: ado-ado)
[2] = plain residues with an end cap or a label only (N-terminal biotin on a linker: ttds)
[3] = plain residues with an end cap or a label only (N-terminal biotin on a linker: ahx)

PLSPEQPTKL [TRIM50, Q86XT4]
pKd (APBA1_1, Q02410; [1]): below the threshold | pKd (APBA2_2, Q99767; [1]): below the threshold | pKd (DFNB31_2, Q9P202; [1]): below the threshold | pKd (DFNB31_3, Q9P202; [1]): 3.93 | pKd (DLG2_2, Q15700; [1]): below the threshold | pKd (DLG3_1, Q92796; [1]): below the threshold | pKd (FRMPD1, Q5SYB0; [1]): below the threshold | pKd (FRMPD4, Q14CM0; [1]): 3.61 | pKd (GORASP2, Q9H8Y8; [1]): below the threshold | pKd (GRASP, Q7Z6J2; [1]): 4 | pKd (GRIP1_2, Q9Y3R0; [1]): below the threshold | pKd (GRIP2_7, Q9C0E4; [1]): below the threshold | pKd (HTRA1, Q92743; [1]): below the threshold | pKd (HTRA4, P83105; [1]): 3.75 | pKd (IL16_3, Q14005; [1]): below the threshold | pKd (LIN7A, O14910; [1]): below the threshold | pKd (LNX1_2, Q8TBB1; [1]): below the threshold | pKd (MAGI1_1, Q96QZ7; [1]): below the threshold | pKd (MAGI2_4, Q86UL8; [1]): below the threshold | pKd (MAGI2_6, Q86UL8; [1]): below the threshold | pKd (MAST2, Q6P0Q8; [1]): 4.73 | pKd (MPP2, Q14168; [1]): below the threshold | pKd (PARD3B_1, Q8TEW8; [1]): 4.06 | pKd (SCRIB_1, Q14160; [1]): below the threshold | pKd (SNTA1, Q13424; [1]): below the threshold

RLQRRRETQV [HPV18-E6, P06463]
pKd (APBA1_1, Q02410; [2]): below the threshold | pKd (APBA2_2, Q99767; [2]): below the threshold | pKd (DFNB31_2, Q9P202; [2]): below the threshold | pKd (DFNB31_3, Q9P202; [2]): below the threshold | pKd (DLG2_2, Q15700; [2]): 5.19 | pKd (DLG3_1, Q92796; [2]): 4.34 | pKd (FRMPD1, Q5SYB0; [2]): below the threshold | pKd (FRMPD4, Q14CM0; [2]): below the threshold | pKd (GORASP2, Q9H8Y8; [2]): 3.89 | pKd (GRASP, Q7Z6J2; [2]): below the threshold | pKd (GRIP1_2, Q9Y3R0; [2]): below the threshold | pKd (GRIP2_7, Q9C0E4; [2]): below the threshold | pKd (HTRA1, Q92743; [2]): below the threshold | pKd (HTRA4, P83105; [2]): below the threshold | pKd (IL16_3, Q14005; [2]): below the threshold | pKd (LIN7A, O14910; [2]): 3.4 | pKd (LNX1_2, Q8TBB1; [2]): below the threshold | pKd (MAGI1_1, Q96QZ7; [2]): below the threshold | pKd (MAGI2_4, Q86UL8; [2]): 4.28 | pKd (MAGI2_6, Q86UL8; [2]): below the threshold | pKd (MAST2, Q6P0Q8; [2]): 4.78 | pKd (MPP2, Q14168; [2]): below the threshold | pKd (PARD3B_1, Q8TEW8; [2]): below the threshold | pKd (SCRIB_1, Q14160; [2]): 4.26 | pKd (SNTA1, Q13424; [2]): 4.7

GYDWGPATDL [TJP3, O95049]
pKd (APBA1_1, Q02410; [3]): below the threshold | pKd (APBA2_2, Q99767; [3]): below the threshold | pKd (DFNB31_2, Q9P202; [3]): below the threshold | pKd (DFNB31_3, Q9P202; [3]): below the threshold | pKd (DLG2_2, Q15700; [3]): below the threshold | pKd (DLG3_1, Q92796; [3]): 3.48 | pKd (FRMPD1, Q5SYB0; [3]): below the threshold | pKd (FRMPD4, Q14CM0; [3]): 3.83 | pKd (GORASP2, Q9H8Y8; [3]): below the threshold | pKd (GRASP, Q7Z6J2; [3]): 4.14 | pKd (GRIP1_2, Q9Y3R0; [3]): below the threshold | pKd (GRIP2_7, Q9C0E4; [3]): below the threshold | pKd (HTRA1, Q92743; [3]): 4.12 | pKd (HTRA4, P83105; [3]): below the threshold | pKd (IL16_3, Q14005; [3]): below the threshold | pKd (LIN7A, O14910; [3]): 3.66 | pKd (LNX1_2, Q8TBB1; [3]): below the threshold | pKd (MAGI1_1, Q96QZ7; [3]): below the threshold | pKd (MAGI2_4, Q86UL8; [3]): 3.49 | pKd (MAGI2_6, Q86UL8; [3]): 5.24 | pKd (MAST2, Q6P0Q8; [3]): 5.77 | pKd (MPP2, Q14168; [3]): below the threshold | pKd (PARD3B_1, Q8TEW8; [3]): 3.65 | pKd (SCRIB_1, Q14160; [3]): 3.76 | pKd (SNTA1, Q13424; [3]): 4.07
